Experimental data published in patent publication US20210107983A1 (Boehringer Ingelheim, published 2021).

T1: Cyno B7H6-His (cynomolgus monkey)
T1 construct: also called CyB7H6; cyB7-H6
T1 chain: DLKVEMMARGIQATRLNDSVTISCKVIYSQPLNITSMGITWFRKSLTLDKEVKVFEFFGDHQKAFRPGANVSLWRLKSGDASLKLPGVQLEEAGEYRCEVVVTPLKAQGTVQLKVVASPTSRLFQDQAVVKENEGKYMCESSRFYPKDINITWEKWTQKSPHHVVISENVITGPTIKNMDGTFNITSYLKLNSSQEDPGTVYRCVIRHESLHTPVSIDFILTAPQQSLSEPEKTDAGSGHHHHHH


Assays:
Cyno B7H6-His [1] = target: T1, Cyno B7H6-His; test: ratio of SPR KDs cyno/human
Procedure: (§1) About 700 RU of the B7H6/CD3 binding protein was captured on flow cell 2 of the Protein A/G surface for 60 s at a flow rate of 10 μL/min. The analytes HuB7H6, CyB7H6 and HuB7H1 were injected across both flow cells over captured B7H6/CD3 binding protein for 300 s at a flow rate of 30 μL/min with a dissociation of 1200 s. The concentrations of HuB7H6 and CyB7H6 were 0 nM, 6.25 nM, 12.5 nM, 25 nM, 50 nM and 100 nM. The concentrations of HuB7H1 were 0 nM and 1 μM. The surface was regenerated by injecting 10 mM glycine-HCl, pH 1.5 for 20 s at a flow rate of 30 μL/min across both flow cells.
(§2) The reference flow cell 1 (interactions with sensor surface) and blank (HBS-EP+ or 0 nM analyte) were subtracted from the raw data.
(§3) The B7H6/CD3 binding protein analyte was injected horizontally over the immobilized surface for 300 s at a flow rate of 30 μL/min with a dissociation of 600 s. The concentrations of the B7H6/CD3 binding protein used were 0 nM, 1.2 nM, 3.7 nM, 11.1 nM, 33.3 nM and 100 nM.

[2] = target: T2, chicken egg white lysozyme (chicken, UniProt P00698 19-147); test: SPR, 1 µM binder over immobilized lysozyme
T2 construct: unrelated positively charged protein, amine-coupled to the chip; also called Lysozyme (positive)
T2 sequence (P00698 19-147): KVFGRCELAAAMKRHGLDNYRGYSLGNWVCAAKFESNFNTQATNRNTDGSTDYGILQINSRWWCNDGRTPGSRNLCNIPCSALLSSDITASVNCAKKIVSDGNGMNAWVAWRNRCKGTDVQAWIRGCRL
Procedure: (§4) The experiment was performed on a Biacore® T200 SPR system (GE Healthcare Life Sciences). The dilution, surface preparation, and binding experiments were performed at 25° C. in 1×HBS-EP buffer prepared from 10×HBS-EP. The flow rate for both the immobilization protocol and binding experiment was at 5 μL/min.
(§5) To prepare the surface for the non-specific binding experiment, chicken egg white lysozyme and trypsin inhibitor from Glycine max soybean were coupled manually to a Biacore® series S CM5 sensor chip (GE Healthcare sciences) with the surface density of 3000-5000 RU using the amine coupling kit according to the manufacture instructions. Samples were prepared at 1 μM in 1×HBS-EP buffer. The samples were injected over activated surfaces with a 10 min association and 15 min dissociation. The data was collected using Biacore® T200 Control Software version 2.0.1 and analyzed using Biacore® T200 Evaluation Software version 3.0 (GE Healthcare Life Sciences).

Human CD3 E+G HuFc-6xHis = target: T3, Human CD3 E+G HuFc-6xHis (human); test: SPR, CD3E+G-hFc immobilized, binder analyte
T3 construct: also called HuCD3E+G-hFc; huCD3
T3 sequence (chain, as listed by the source limits assumed): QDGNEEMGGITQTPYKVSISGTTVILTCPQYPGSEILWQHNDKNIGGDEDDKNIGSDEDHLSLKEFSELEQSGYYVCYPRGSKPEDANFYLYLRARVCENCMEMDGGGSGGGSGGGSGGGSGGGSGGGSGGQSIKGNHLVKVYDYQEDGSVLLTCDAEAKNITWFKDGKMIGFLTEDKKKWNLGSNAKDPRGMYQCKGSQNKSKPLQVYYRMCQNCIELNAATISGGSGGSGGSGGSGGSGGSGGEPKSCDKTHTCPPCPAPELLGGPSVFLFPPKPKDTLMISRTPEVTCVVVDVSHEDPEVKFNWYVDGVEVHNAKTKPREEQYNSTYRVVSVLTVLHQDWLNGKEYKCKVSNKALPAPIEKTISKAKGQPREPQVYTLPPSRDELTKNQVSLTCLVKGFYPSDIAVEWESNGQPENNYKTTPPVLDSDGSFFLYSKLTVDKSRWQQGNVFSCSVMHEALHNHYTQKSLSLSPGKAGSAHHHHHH
Procedure: To determine the affinity of the B7H6/CD3 binding protein to human and cyno CD3E+G-hFc, the experiment was performed on a Bio-Rad ProteOn™ XPR36 instrument. Briefly, HuCD3E+G-hFc and CyCD3E+G were amine-coupled on a ProteOn™ GLM sensor chip (Bio-Rad) and the B7H6/CD3 binding protein was flowed over the immobilized surface. The running buffer for this experiment and all serial dilutions were prepared in HBS-EP+. The GLM sensor chip was normalized according to Bio-Rad's recommendations. The sensor chip was activated with an equal mixture of EDC/s-NHS in the horizontal direction for 300 s at a flow rate of 30 μL/min HuCD3E+G-hFc was immobilized in the vertical direction at 0.4 μg/mL, 0.2 μg/mL and 0.1 μg/mL in 10 mM acetate pH 4.5 to L1, L2 and L3, respectively, for 300 s at a flow rate of 30 μL/min resulting in about 100 RU of HuCD3E+G-hFc on L1, 40 RU of HuCD3E+G-hFc on L2 and 0 RU of HuCD3E+G-hFc on L3. CyCD3E+G-hFc was immobilized in the vertical direction at 0.4 μg/mL, 0.2 μg/mL and 0.1 μg/mL in 10 mM acetate pH 4.5 to L4, L5 and L6, respectively, for 300 s at a flow rate of 30 μL/min resulting in about 385 RU of […], 170 RU of CyCD3E+G-hFc on L5 and 50 RU of CyCD3E+G-hFc on L6. The sensor chip was deactivated with 1M ethanolamine-HCl in the horizontal direction for 300 s at a flow rate of 30 μL/min.
as §3
The interspot (interactions with sensor surface) and blank (HBS-EP+ or 0 nM analyte) were subtracted from the raw data.

Cyno B7H6-His [3] = target: T1, Cyno B7H6-His; test: SPR, binder captured on Protein A/G, B7H6 analyte
Procedure: (§6) To determine the affinity of human and cyno B7H6 and human B7H1 to B7H6/CD3 binding proteins, the experiment was performed on a Biacore™ 8K instrument (GE Healthcare Life Sciences). Briefly, the B7H6/CD3 binding protein was captured via Protein A/G. The running buffer for this experiment and all serial dilutions were prepared in HBS-EP+. The CM5 sensor chip was activated with an equal mixture of EDC/NHS across both flow cells for 420 s at a flow rate of 10 μL/min and immobilized with recombinant Protein A/G (50 μg/ml in 10 mM NaOAc, pH 4.5) across all flow cells for 420 s at a flow rate of 10 μL/min resulting in about 2500 RU of Protein A/G on the surface. The sensor chip was deactivated with 1M ethanolamine-HCl across all flow cells for 420 s at a flow rate of 10 μL/min.
as §1, §2

Human B7H1 = target: T4, Human B7H1 (human, UniProt Q9NZQ7 20-239); test: SPR, binder captured on Protein A/G, HuB7H1 analyte
T4 construct: also called HuB7H1; huB7-H1
T4 sequence (Q9NZQ7 other isoform, or with tags, fused parts or gaps limits assumed): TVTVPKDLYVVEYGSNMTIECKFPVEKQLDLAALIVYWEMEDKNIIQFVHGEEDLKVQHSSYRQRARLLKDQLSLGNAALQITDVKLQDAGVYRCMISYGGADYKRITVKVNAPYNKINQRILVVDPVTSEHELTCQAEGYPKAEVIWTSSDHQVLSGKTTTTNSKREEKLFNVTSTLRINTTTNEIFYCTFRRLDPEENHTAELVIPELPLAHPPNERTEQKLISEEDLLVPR
Procedure: as §6, §1, §2

[4] = target: T5, trypsin inhibitor from Glycine max soybean (Glycine max (soybean)); test: SPR, 1 µM binder over immobilized trypsin inhibitor
T5 construct: unrelated negatively charged protein, amine-coupled to the chip
T5 sequence (P01070 25-205): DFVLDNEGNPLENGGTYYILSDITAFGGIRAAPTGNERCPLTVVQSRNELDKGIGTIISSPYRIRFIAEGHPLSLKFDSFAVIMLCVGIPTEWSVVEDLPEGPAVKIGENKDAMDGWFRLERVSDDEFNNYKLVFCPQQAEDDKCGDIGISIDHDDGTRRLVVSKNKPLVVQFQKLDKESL
Procedure: as §4, §5

cy/hu B7-H6 (Cyno B7H6-His [1])	Non-specific binding (RU) [2]	Kd (Human CD3 E+G HuFc-6xHis)	Kd (Cyno B7H6-His [3])	binding result (Human B7H1)	Non-specific binding (RU) [4]	Binder
1	15.3 RU	13.5 nM	8.4 nM	no binding (tested: 1 µM)	88.4 RU	B7H6#17/CD3#1 (bispecific antibody, human IgG1, kappa, lambda, L234A L235A, scFab-Fc heterodimer, one B7H6 chain and one CD3 chain) chain 1: DIQMTQSPSSLSASVGDRVTITCKASQNVGKYVAWYQQKPGKAPKSLIYSASNRYDGVPSRFSGSGSGTDFTLTISSLQPEDFTTYYCQQYISYPLTFGAGTKLEIKRTVAAPSVFIFPPSDEQLKSGTASVVCLLNNFYPREAKVQWKVDNALQSGNSQESVTEQDSKDSTYSLSSTLTLSKADYEKHKVYACEVTHQGLSSPVTKSFNRGECGGGGSEGKSSGSGSESKSTEGKSSGSGSESKSTGGGGSQVQLVQSGAEVKKPGASVKVSCKASGYTFTSYWMNWMRQAPGQGLEWMGGIYLSGDSTDYNEKFKGRVTMTVDTSTSTVYMELSSLRSEDTAVYYCTRRGDYFGDFWGQGTLVTVSSASTKGPSVFPLAPSSKSTSGGTAALGCLVKDYFPEPVTVSWNSGALTSGVHTFPAVLQSSGLYSLSSVVTVPSSSLGTQTYICNVNHKPSNTKVDKRVEPKSCDKTHTCPPCPAPEAAGGPSVFLFPPKPKDTLMISRTPEVTCVVVDVSHEDPEVKFNWYVDGVEVHNAKTKPREEQYNSTYRVVSVLTVLHQDWLNGKEYKCKVSNKALPAPIEKTISKAKGQPREPQVYTLPPSREEMTKNQVSLWCLVKGFYPSDIAVEWESNGQPENNYKTTPPVLDSDGSFFLYSKLTVDKSRWQQGNVFSCSVMHEALHNHYTQKSLSLSPG chain 2: EAVVTQEPSLTVSPGGTVTLTCRSSTGAVTTSNYANWVQEKPGQLPRGLIGGTNKRAPWVPARFSGSLLGGKAALTLSGAQPEDEAEYFCALWYSNLWVFGGGTKLTVLGQPKAAPSVTLFPPSSEELQANKATLVCLISDFYPGAVKVAWKADGSPVNTGVETTTPSKQSNNKYAASSYLSLTPEQWKSHRSYSCQVTHEGSTVEKTVAPAECSGGGGSEGKSSGSGSESKSTEGKSSGSGSESKSTGGGGSEVQLVESGGGLVQPGGSLKLSCAASGFTFNTYAMNWVRQAPGKGLEWVARIRSKYNNYATYYADSVKDRFTISRDDSKNTAYLQMNNLKTEDTAVYYCVRHGNFGNSYVSWFAYWGQGTLVTVSAASTKGPSVFPLAPSSKSTSGGTAALGCLVKDYFPEPVTVSWNSGALTSGVHTFPAVLQSSGLYSLSSVVTVPSSSLGTQTYICNVNHKPSNTKVDKRVEPKSCDKTHTCPPCPAPEAAGGPSVFLFPPKPKDTLMISRTPEVTCVVVDVSHEDPEVKFNWYVDGVEVHNAKTKPREEQYNSTYRVVSVLTVLHQDWLNGKEYKCKVSNKALPAPIEKTISKAKGQPREPQVYTLPPSREEMTKNQVSLSCAVKGFYPSDIAVEWESNGQPENNYKTTPPVLDSDGSFFLVSKLTVDKSRWQQGNVFSCSVMHEALHNRFTQKSLSLSPG
2.1	9.2 RU	3.6 nM	2.3 nM	no binding (tested: 1 µM)	35.4 RU	B7H6#12/CD3#1 (bispecific antibody, human IgG1, kappa, lambda, L234A L235A, scFab-Fc heterodimer, one B7H6 chain and one CD3 chain) chain 1: DIQMTQSPSSLSASVGDRVTITCKASQNVGKYVAWYQQKPGKAPKSLIYSASNRYDGVPSRFSGSGSGTDFTLTISSLQPEDFTTYYCQQYISYPLTFGAGTKLEIKRTVAAPSVFIFPPSDEQLKSGTASVVCLLNNFYPREAKVQWKVDNALQSGNSQESVTEQDSKDSTYSLSSTLTLSKADYEKHKVYACEVTHQGLSSPVTKSFNRGECGGGGSEGKSSGSGSESKSTEGKSSGSGSESKSTGGGGSQVQLVQSGAEVKKPGASVKVSCKASGYTFTNYWMNWVKQAPGQGLEWMGGIYLNGDSTDYNEKFKGKATMTVDTSTSTVYMELSSLRSEDTAVYYCTRRGDYFGDFWGQGTLVTVSSASTKGPSVFPLAPSSKSTSGGTAALGCLVKDYFPEPVTVSWNSGALTSGVHTFPAVLQSSGLYSLSSVVTVPSSSLGTQTYICNVNHKPSNTKVDKRVEPKSCDKTHTCPPCPAPEAAGGPSVFLFPPKPKDTLMISRTPEVTCVVVDVSHEDPEVKFNWYVDGVEVHNAKTKPREEQYNSTYRVVSVLTVLHQDWLNGKEYKCKVSNKALPAPIEKTISKAKGQPREPQVYTLPPSREEMTKNQVSLWCLVKGFYPSDIAVEWESNGQPENNYKTTPPVLDSDGSFFLYSKLTVDKSRWQQGNVFSCSVMHEALHNHYTQKSLSLSPG chain 2: EAVVTQEPSLTVSPGGTVTLTCRSSTGAVTTSNYANWVQEKPGQLPRGLIGGTNKRAPWVPARFSGSLLGGKAALTLSGAQPEDEAEYFCALWYSNLWVFGGGTKLTVLGQPKAAPSVTLFPPSSEELQANKATLVCLISDFYPGAVKVAWKADGSPVNTGVETTTPSKQSNNKYAASSYLSLTPEQWKSHRSYSCQVTHEGSTVEKTVAPAECSGGGGSEGKSSGSGSESKSTEGKSSGSGSESKSTGGGGSEVQLVESGGGLVQPGGSLKLSCAASGFTFNTYAMNWVRQAPGKGLEWVARIRSKYNNYATYYADSVKDRFTISRDDSKNTAYLQMNNLKTEDTAVYYCVRHGNFGNSYVSWFAYWGQGTLVTVSAASTKGPSVFPLAPSSKSTSGGTAALGCLVKDYFPEPVTVSWNSGALTSGVHTFPAVLQSSGLYSLSSVVTVPSSSLGTQTYICNVNHKPSNTKVDKRVEPKSCDKTHTCPPCPAPEAAGGPSVFLFPPKPKDTLMISRTPEVTCVVVDVSHEDPEVKFNWYVDGVEVHNAKTKPREEQYNSTYRVVSVLTVLHQDWLNGKEYKCKVSNKALPAPIEKTISKAKGQPREPQVYTLPPSREEMTKNQVSLSCAVKGFYPSDIAVEWESNGQPENNYKTTPPVLDSDGSFFLVSKLTVDKSRWQQGNVFSCSVMHEALHNRFTQKSLSLSPG
